According to the supplement of paper PMC6757056:
± gives the standard deviation of the averaged measurements.

B1: library; a variant is named by its letters at N, in order (parent)
chain: GCUGUCACCGAGAAACUGUGAAGUAUAUCUUAAACCUGGGCACUUAAAAGAUAUAUGGAGUUAGUAGUGCAACCUGCUCGGUCUGAUGAGUCCNNNNNNGGACGAAACAGC

Columns and labels:
cyclic di-GMP [1] = variants of: B1; test: normalized RNA/DNA level without ligand (relative to sTRSVctl = 100) (log10 (% of sTRSVctl)); HEK293T; ligand: cyclic di-GMP (c-di-GMP-II aptamer); higher = less ribozyme self-cleavage, higher mRNA level; details: reporter: mCherry (pCS4076), ligand present: no
Procedure, shortened: (§1)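 Total RNA, extracted with EDTA 72 h after HEK293T cells were transfected with 4 µg per 6-well well of reporter-linked ribozyme switch library plasmids, was reverse-transcribed, amplified, barcoded and sequenced. Ligand, if used, was added 1 h before transfection. RNA level was derived from RNA reads divided by DNA reads and normalized to a spiked-in non-cleaving sequence or to the top sequences. This was multiplied by 100 and log10-transformed, with the top set of 25 sequences and a ≥100 DNA read minimum.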

cyclic di-GMP [2] = variants of: B1; test: normalized RNA/DNA level with ligand (relative to sTRSVctl = 100) (log10 (% of sTRSVctl)); HEK293T; ligand: cyclic di-GMP (c-di-GMP-II aptamer); ligand concentration (+) RNA-Seq: 1 mM; higher = less ribozyme self-cleavage, higher mRNA level; details: reporter: mCherry (pCS4076), ligand present: yes
Procedure, shortened: as §1

Row | Variant | normalized RNA/DNA level without ligand (log10) (cyclic di-GMP [1]) | normalized RNA/DNA level with ligand (log10) (cyclic di-GMP [2])
1 | UUACUU | 1.68 ± 0.022 | 1.83 ± 0.11
2 | UUACUG | 1.67 ± 0.016 | 1.84 ± 0.096
3 | UUACUC | 1.747 ± 0.0026 | 1.84 ± 0.093
4 | GUAUCC | 1.73 ± 0.028 | 1.86 ± 0.13
5 | GUAUCG | 1.63 ± 0.043 | 1.81 ± 0.098
6 | GUAUCU | 1.68 ± 0.038 | 1.82 ± 0.084
7 | UGUUCC | 1.84 ± 0.052 | 1.94 ± 0.14
8 | UGUUCG | 1.8 ± 0.023 | 1.89 ± 0.12
9 | UGUUCU | 1.75 ± 0.051 | 1.88 ± 0.13
10 | UGUUCA | 1.71 ± 0.066 | 1.81 ± 0.12
11 | AUAAUC | 1.677 ± 0.0067 | 1.77 ± 0.08
12 | AUAAUG | 1.58 ± 0.034 | 1.75 ± 0.059
13 | AUACGU | 1.67 ± 0.043 | 1.79 ± 0.059
14 | AUACGC | 1.658 ± 0.014 | 1.81 ± 0.14
15 | AUACGG | 1.58 ± 0.093 | 1.74 ± 0.056
16 | AUAGAU | 1.58 ± 0.056 | 1.72 ± 0.12
17 | AUAGAG | 1.46 ± 0.13 | 1.73 ± 0.082
18 | CGUUAC | 1.57 ± 0.059 | 1.74 ± 0.064
19 | CGUUAG | 1.753 ± 0.0013 | 1.89 ± 0.11
20 | AGUGUG | 1.57 ± 0.084 | 1.71 ± 0.13
21 | AGUGUU | 1.617 ± 0.0053 | 1.79 ± 0.12
22 | AGUGUA | 1.51 ± 0.042 | 1.66 ± 0.11
23 | CUACCA | 1.621 ± 0.016 | 1.79 ± 0.12

Row | Variant | normalized RNA/DNA level without ligand (log10) (cyclic di-GMP [1]) | normalized RNA/DNA level with ligand (log10) (cyclic di-GMP [2])
24 | CUACCU | 1.59 ± 0.032 | 1.77 ± 0.078
25 | CUACCG | 1.82 ± 0.095 | 1.91 ± 0.098
26 | CUACCC | 1.76 ± 0.046 | 1.88 ± 0.1
27 | AUAGUC | 1.675 ± 0.0068 | 1.83 ± 0.088
28 | AUAGUG | 1.56 ± 0.068 | 1.71 ± 0.083
29 | CGUUCG | 1.81 ± 0.095 | 1.9 ± 0.16
30 | UUAGCC | 1.76 ± 0.082 | 1.83 ± 0.13
31 | UUAGCA | 1.72 ± 0.052 | 1.83 ± 0.12
32 | UUAGCU | 1.775 ± 0.0051 | 1.89 ± 0.062
33 | UUAGCG | 1.79 ± 0.032 | 1.86 ± 0.11
34 | AUAUCU | 1.73 ± 0.062 | 1.86 ± 0.13
35 | AUAUCG | 1.56 ± 0.022 | 1.75 ± 0.068
36 | AUAUCA | 1.63 ± 0.032 | 1.79 ± 0.12
37 | GUAGCC | 1.69 ± 0.071 | 1.8 ± 0.11
38 | GUAGCU | 1.74 ± 0.065 | 1.83 ± 0.1
39 | GUAGCG | 1.81 ± 0.022 | 1.88 ± 0.059
40 | AUACUG | 1.56 ± 0.049 | 1.73 ± 0.086
41 | AUACUC | 1.74 ± 0.022 | 1.87 ± 0.072
42 | AUACUU | 1.658 ± 0.0084 | 1.83 ± 0.13
43 | AUACUA | 1.597 ± 0.0074 | 1.78 ± 0.18
44 | GUACUU | 1.7 ± 0.036 | 1.81 ± 0.15
45 | GUACUG | 1.58 ± 0.033 | 1.78 ± 0.081
46 | GUACUA | 1.61 ± 0.036 | 1.8 ± 0.065

Row | Variant | normalized RNA/DNA level without ligand (log10) (cyclic di-GMP [1]) | normalized RNA/DNA level with ligand (log10) (cyclic di-GMP [2])
47 | GUACUC | 1.54 ± 0.099 | 1.75 ± 0.041
48 | GUAGUU | 1.61 ± 0.043 | 1.75 ± 0.061
49 | GUAGUG | 1.744 ± 0.0031 | 1.81 ± 0.12
50 | GUAGUC | 1.37 ± 0.12 | 1.55 ± 0.054
51 | GUAGAC | 1.595 ± 0.0029 | 1.79 ± 0.13
52 | UUACGC | 1.739 ± 0.011 | 1.86 ± 0.1
53 | UUACGA | 1.77 ± 0.046 | 1.87 ± 0.11
54 | UUACGG | 1.82 ± 0.058 | 1.9 ± 0.094
55 | UUACGU | 1.66 ± 0.03 | 1.8 ± 0.079
56 | CUAGCG | 1.772 ± 0.015 | 1.85 ± 0.18
57 | CUAGCA | 1.71 ± 0.064 | 1.78 ± 0.13
58 | CUAGCC | 1.77 ± 0.022 | 1.83 ± 0.075
59 | CUAGCU | 1.72 ± 0.027 | 1.85 ± 0.13
60 | GGUGUA | 1.6 ± 0.14 | 1.76 ± 0.14
61 | GGUGUU | 1.63 ± 0.037 | 1.86 ± 0.094
62 | GGUGUC | 1.66 ± 0.019 | 1.8 ± 0.1
63 | GUAAAC | 1.57 ± 0.017 | 1.74 ± 0.038
64 | CUAAGU | 1.75 ± 0.063 | 1.84 ± 0.099
65 | CUAAGG | 1.748 ± 0.0049 | 1.8 ± 0.064
66 | CUAAGA | 1.53 ± 0.068 | 1.72 ± 0.079
67 | CUAAGC | 1.75 ± 0.039 | 1.87 ± 0.077
68 | UGUGUG | 1.69 ± 0.053 | 1.86 ± 0.056
69 | UGUGUU | 1.665 ± 0.0047 | 1.82 ± 0.16

Row | Variant | normalized RNA/DNA level without ligand (log10) (cyclic di-GMP [1]) | normalized RNA/DNA level with ligand (log10) (cyclic di-GMP [2])
70 | UGUGUA | 1.61 ± 0.045 | 1.74 ± 0.072
71 | UGUGUC | 1.756 ± 0.0091 | 1.86 ± 0.1
72 | CUAAUC | 1.712 ± 0.014 | 1.81 ± 0.087
73 | UUAGGC | 1.7 ± 0.021 | 1.83 ± 0.14
74 | UUAGGU | 1.7 ± 0.042 | 1.86 ± 0.1
75 | UUAGGG | 1.65 ± 0.018 | 1.8 ± 0.12
76 | UUAGGA | 1.57 ± 0.079 | 1.76 ± 0.089
77 | UUACAU | 1.677 ± 0.014 | 1.82 ± 0.1
78 | UUACAC | 1.73 ± 0.034 | 1.84 ± 0.11
79 | UUACAA | 1.639 ± 0.0043 | 1.82 ± 0.07
80 | UUACAG | 1.707 ± 0.0067 | 1.86 ± 0.14
81 | CUACUA | 1.47 ± 0.14 | 1.64 ± 0.072
82 | CUACUC | 1.7 ± 0.034 | 1.83 ± 0.069
83 | CUACUG | 1.64 ± 0.025 | 1.83 ± 0.078
84 | CUACUU | 1.56 ± 0.067 | 1.73 ± 0.059
85 | AGUUCC | 1.8 ± 0.043 | 1.9 ± 0.084
86 | AGUUCG | 1.69 ± 0.021 | 1.79 ± 0.11
87 | AGUUCA | 1.62 ± 0.051 | 1.8 ± 0.061
88 | AGUUCU | 1.69 ± 0.027 | 1.87 ± 0.056
89 | UUAAUC | 1.77 ± 0.075 | 1.83 ± 0.14
90 | UUAAUA | 1.64 ± 0.044 | 1.8 ± 0.16
91 | UUAAUU | 1.76 ± 0.072 | 1.88 ± 0.12
92 | GUACCG | 1.77 ± 0.037 | 1.84 ± 0.069

Row | Variant | normalized RNA/DNA level without ligand (log10) (cyclic di-GMP [1]) | normalized RNA/DNA level with ligand (log10) (cyclic di-GMP [2])
93 | GUACCA | 1.68 ± 0.044 | 1.81 ± 0.13
94 | GUACCU | 1.73 ± 0.029 | 1.83 ± 0.13
95 | GUACCC | 1.75 ± 0.058 | 1.88 ± 0.097
96 | UUAGAU | 1.7 ± 0.031 | 1.83 ± 0.082
97 | UUAGAA | 1.56 ± 0.043 | 1.73 ± 0.088
98 | UUAGAC | 1.702 ± 0.0078 | 1.83 ± 0.1
99 | UUAGAG | 1.63 ± 0.0024 | 1.76 ± 0.047
100 | UUAAGG | 1.77 ± 0.047 | 1.9 ± 0.13
101 | UUAAGU | 1.71 ± 0.02 | 1.82 ± 0.1
102 | UUAAGC | 1.734 ± 0.0092 | 1.85 ± 0.078
103 | CUAGAU | 1.65 ± 0.017 | 1.79 ± 0.069
104 | CUAGAG | 1.589 ± 0.011 | 1.74 ± 0.08
105 | GUACAG | 1.65 ± 0.067 | 1.78 ± 0.12
106 | GUACAC | 1.67 ± 0.03 | 1.79 ± 0.1
107 | GUACAU | 1.61 ± 0.075 | 1.79 ± 0.074
108 | UGUUUC | 1.812 ± 0.0031 | 1.92 ± 0.08
109 | UGUUUG | 1.77 ± 0.014 | 1.91 ± 0.12
110 | UGUUUA | 1.744 ± 0.0073 | 1.89 ± 0.072
111 | UGUUUU | 1.71 ± 0.032 | 1.86 ± 0.11
112 | AGUUGU | 1.66 ± 0.048 | 1.85 ± 0.11
113 | AGUUGA | 1.57 ± 0.04 | 1.75 ± 0.1
114 | AGUUGC | 1.67 ± 0.029 | 1.82 ± 0.12
115 | AGUUGG | 1.63 ± 0.043 | 1.8 ± 0.11
